The record followed here is publication doi:10.1101/2020.02.28.970301, “Picomolar affinity antagonist and sustained signaling agonist peptide ligands for the adrenomedullin and calcitonin gene-related peptide receptors” (bioRxiv, 2020).

In this experiment the target is T1, CLR ECD (29-144) as it stands in MBP-RAMP2.55-140[L106R]-(GSA)3-CLR.29-144-H6 (human, UniProt Q16602 29-144).
T1 construct: calcitonin receptor-like receptor (CLR), human, extracellular domain, residues 29-144; joined to m5 on one chain by the (GSA)3 linker in the crystallised fusion m4; source: E. coli, purified (as part of the fusion m4); not shown: His6, C-terminal, kept
T1 sequence (Q16602 29-144, stated change not applied): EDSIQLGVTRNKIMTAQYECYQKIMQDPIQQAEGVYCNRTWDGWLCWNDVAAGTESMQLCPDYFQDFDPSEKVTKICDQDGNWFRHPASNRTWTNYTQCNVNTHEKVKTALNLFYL
The experiment in a line: crystal structure; bacterially expressed MBP-RAMP2 ECD-(GSA)3-CLR ECD mixed with peptide 1:1.2; hanging drop, 20% PEG MME 5000, 0.1 M sodium HEPES pH 8.2, 150 mM sodium formate, 3% DMSO; 1.83 Å. Particulars: both partners purified.

B1: RAMP2 ECD (55-140, L106R) as it stands in MBP-RAMP2.55-140[L106R]-(GSA)3-CLR.29-144-H6 (domain or fragment, human, UniProt O60895 55-140, looked up)
chain: GGTVKNYETAVQFCWNHYKDQMDPIEKDWCDWAMISRPYSTLRDCLEHFAERFDLGFPNPLAERIIFETHQIHFANCSLVQPTFSD
notes: receptor activity-modifying protein 2 (RAMP2), human, extracellular domain, residues 55-140; joined to m6 on one chain by the (GSA)3 linker in the crystallised fusion m4; source: E. coli, purified (as part of the fusion m4); not shown: MBP, N-terminal, kept
As for B1, the binding result is on record as “binds”.
